Substitutions are numbered along the chain they refer to.
How the values were obtained:
[1] = target: Human IL-11, endogenously produced by TGFβ1-stimulated human cells (human) (UniProt P20809); assay: cell-based or functional assay
[2] = target: Mouse IL-11, endogenously produced by TGFβ1-stimulated mouse atrial fibroblasts (mouse) (UniProt P47873); assay: cell-based or functional assay
[3] = target: T1, Human IL-11Rα endogenously expressed on primary human cells (human, UniProt Q14626 23-422); assay: cell-based or functional assay
T1 sequence (looked up): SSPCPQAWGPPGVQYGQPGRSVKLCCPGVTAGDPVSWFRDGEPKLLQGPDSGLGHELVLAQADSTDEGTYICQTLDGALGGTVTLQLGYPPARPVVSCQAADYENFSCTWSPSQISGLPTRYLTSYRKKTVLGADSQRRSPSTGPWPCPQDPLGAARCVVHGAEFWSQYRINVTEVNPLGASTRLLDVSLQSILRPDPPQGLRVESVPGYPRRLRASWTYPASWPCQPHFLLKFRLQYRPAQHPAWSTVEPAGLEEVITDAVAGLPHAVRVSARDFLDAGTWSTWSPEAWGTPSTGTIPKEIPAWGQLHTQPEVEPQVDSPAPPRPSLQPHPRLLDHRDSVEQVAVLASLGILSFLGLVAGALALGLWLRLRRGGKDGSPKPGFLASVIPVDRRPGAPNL

[4] = target: T1, Human IL-11Rα endogenously expressed on …; assay: cell-based or functional assay; remark: listed apart in the source
[5] = target: T2, IL-11:IL-11Rα fusion protein (hyper IL-11); assay: cell-based or functional assay
T2 chain: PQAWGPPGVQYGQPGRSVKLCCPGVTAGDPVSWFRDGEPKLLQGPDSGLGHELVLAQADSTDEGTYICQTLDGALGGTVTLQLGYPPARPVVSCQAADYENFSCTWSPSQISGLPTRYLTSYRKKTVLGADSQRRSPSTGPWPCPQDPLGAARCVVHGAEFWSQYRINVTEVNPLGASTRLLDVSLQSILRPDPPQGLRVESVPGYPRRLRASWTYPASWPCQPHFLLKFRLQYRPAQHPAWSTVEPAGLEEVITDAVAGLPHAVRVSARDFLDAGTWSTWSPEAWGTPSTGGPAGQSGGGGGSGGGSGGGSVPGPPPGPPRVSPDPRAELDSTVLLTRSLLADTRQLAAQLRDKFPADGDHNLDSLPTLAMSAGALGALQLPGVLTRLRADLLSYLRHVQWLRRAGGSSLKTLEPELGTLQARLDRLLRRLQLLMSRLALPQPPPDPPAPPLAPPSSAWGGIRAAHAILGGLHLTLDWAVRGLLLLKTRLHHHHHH

[6] = target: T3, Mouse IL-11Rα endogenously expressed on primary mouse fibroblasts (mouse, UniProt Q64385 24-432); assay: cell-based or functional assay
T3 sequence (looked up): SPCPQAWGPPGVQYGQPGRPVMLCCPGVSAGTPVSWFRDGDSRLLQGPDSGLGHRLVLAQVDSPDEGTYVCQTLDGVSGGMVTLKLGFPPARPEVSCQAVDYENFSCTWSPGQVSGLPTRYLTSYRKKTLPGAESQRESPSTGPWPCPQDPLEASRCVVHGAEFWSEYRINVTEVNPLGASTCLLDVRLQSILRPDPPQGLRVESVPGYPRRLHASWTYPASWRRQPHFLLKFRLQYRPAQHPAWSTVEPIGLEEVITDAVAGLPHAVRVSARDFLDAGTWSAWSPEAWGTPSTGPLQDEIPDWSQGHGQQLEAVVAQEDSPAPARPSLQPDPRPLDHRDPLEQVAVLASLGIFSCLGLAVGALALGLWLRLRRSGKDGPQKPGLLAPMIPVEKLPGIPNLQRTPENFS

[7] = target: T2, IL-11:IL-11Rα fusion protein (hyper …); assay: cell-based or functional assay
[8] = target: T1, Human IL-11Rα endogenously expressed on …; assay: cell-based or functional assay; remark: listed apart in the source
[9] = target: T1, Human IL-11Rα endogenously expressed on …; assay: cell-based or functional assay; remark: listed apart in the source
[10] = target: T1, Human IL-11Rα endogenously expressed on …; assay: cell-based or functional assay; remark: listed apart in the source
[11] = target: T4, IL-11Rα as used in the Biacore kinetics of Example 14 (UniProt Q14626 23-363, limits assumed); assay: SPR (Biacore T200), multi-cycle kinetics, 25 C, HBS-P+ pH 7.4 with 0.1% BSA
T4 sequence (looked up): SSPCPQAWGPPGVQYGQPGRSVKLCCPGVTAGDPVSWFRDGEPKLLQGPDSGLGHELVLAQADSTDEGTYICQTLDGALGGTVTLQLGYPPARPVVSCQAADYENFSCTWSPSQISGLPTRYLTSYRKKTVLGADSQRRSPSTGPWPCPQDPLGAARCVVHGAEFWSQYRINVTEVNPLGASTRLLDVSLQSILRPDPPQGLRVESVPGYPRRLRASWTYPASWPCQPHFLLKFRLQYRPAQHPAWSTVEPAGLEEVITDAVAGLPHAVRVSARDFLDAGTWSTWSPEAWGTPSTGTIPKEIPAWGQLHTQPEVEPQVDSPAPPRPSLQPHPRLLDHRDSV
Protocol: The six antibodies were assessed by multi-cycle kinetics analysis at a final concentration of 1 μg/ml, run at 25° C. with HBS-P+ running buffer (pH 7.4) containing 0.1% BSA using a Biacore T200 instrument.
The relative KD was calculated by dividing the KD of the humanised variant by that of the 9A7 antibody assayed in the same experiment. All six humanised antibodies bound to IL-11R within two-fold of 9A7 (SEQ ID NO:7 and 13).

[12] = target: Tagged human IL-11Rα expressed at the surface of transiently transfected cells (human) (UniProt Q14626); assay: same assay; by the legend the percent is the strength of binding relative to the anti-FLAG positive control (100%); negative control 3%
[13] = target: T5, Recombinant human IL-11Rα (Sino Biological Cat. No. 10252-H08H) (human, UniProt Q14626 23-363); assay: SPR, BIAcore T200, multi-cycle kinetics; recombinant human IL-11Rα immobilised, antibody (IgG1 format) flowed at 100 to 1.56 nM; 1:1 model; analysis (1); Chi2 0.181 RU2
T5 construct: Bought protein, immobilised on the chip
T5 sequence (looked up): T4 sequence (looked up)

[14] = target: T5, Recombinant human IL-11Rα (Sino …); assay: SPR, BIAcore T200, multi-cycle kinetics; recombinant human IL-11Rα immobilised, antibody (IgG1 format) flowed at 50 to 1.56 nM; 1:1 model; analysis (2); Chi2 0.0356 RU2
[15] = target: Tagged human IL-11Rα expressed at the surface of transiently transfected cells (human) (UniProt Q14626); assay: flow cytometry of subcloned hybridoma supernatant on cells transiently transfected with FLAG-tagged human IL-11Rα (sheet head: 'cells transfected with pB1-IL11-hum.FL', 'flow cytometry (Attunes)'); fluorescent anti-mouse IgG secondary; negative control GMFI 930
[16] = target: T1, Human IL-11Rα endogenously expressed on …; assay: cell-based or functional assay; remark: listed apart in the source

Sequence of Mouse IL-11, endogenously produced by TGFβ1-stimulated mouse atrial fibroblasts (mouse) (P47873 22-199 limits assumed): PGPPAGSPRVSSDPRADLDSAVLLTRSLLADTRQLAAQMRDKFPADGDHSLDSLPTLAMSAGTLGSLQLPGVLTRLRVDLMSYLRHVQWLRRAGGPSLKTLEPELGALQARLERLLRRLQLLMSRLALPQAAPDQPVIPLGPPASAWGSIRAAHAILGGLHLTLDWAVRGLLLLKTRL

## Commercial monoclonal mouse anti-IL-11 antibody (Monoclonal Mouse IgG2A; Clone #22626; Catalog No. MAB218; R&D Systems)
[1]
  fold change in percentage of αSMA-positive (activated) human atrial fibroblasts against unstimulated cultures, TGFβ1 5 ng/ml, 24 h: 0.89 fold
[2]
  fold change in percentage of αSMA-positive (activated) mouse atrial fibroblasts against unstimulated cultures, TGFβ1, 24 h: 1.44 fold

B1: Anti-IL-11Rα antibody clone BSO-9A7 (antibody, V domains shown)
VH: QVQLQQPGAELVRPGSSVKLSCKASGYTFTNYWMHWLKQRPVQGLEWIGNIGPSDSKTHYNQKFKDKATLTVDKSSSTAYMQLNSLTSEDSAVYYCARGDYVLFTYWGQGTLVTVSA
VL: DIVLTQSPATLSMTPGDSVSLSCRASQSISNNLHWYQQKSHESPRLLIKYASQSISGIPSRFSGSGSGTDFTLSFNSVETEDFGVYFCQQSYSWPLTFGAGTKLELK
notes: also called RA7; 9A7 VH/VL
[3]
  IC50 of inhibition of MMP2 secretion by HSCs stimulated with TGFβ1 (5 ng/ml, 24 h): 0.0054 nM
[4]
  IC50 of inhibition of MMP2 secretion, human atrial fibroblasts + TGFB1 5 ng/ml, 24 h (panel 'MMP2 - TGFB - 9A7'): 0.082 µg/mL
  IC50 of inhibition of TIMP1 secretion, human atrial fibroblasts + TGFB1 5 ng/ml, 24 h (panel 'TIMP1 - TGFB - 9A7'): 0.0974 µg/mL
[5]
  IC50 of inhibition of MMP2 secretion, human atrial fibroblasts + IL-11:IL11RA (hyper IL-11) 0.2 ng/ml (panel 'MMP2 - IL-11:IL11RA - 9A7'): 0.246 µg/mL
  IC50 of inhibition of TIMP1 secretion, human atrial fibroblasts + IL-11:IL11RA (hyper IL-11) 0.2 ng/ml (panel 'TIMP1 - IL-11:IL11RA - 9A7'): 0.196 µg/mL
[6]
  IC50 of inhibition of MMP2 secretion, primary mouse cardiac fibroblasts + TGFB1 5 ng/ml (endogenous IL-11) (panel 'TGFB1-driven MMP2 secretion'): 0.0146 µg/mL
  IC50 of inhibition of MMP2 secretion, primary mouse cardiac fibroblasts + exogenous IL-11 2 ng/ml (panel 'IL-11-driven MMP2 secretion'): 0.0292 µg/mL
[7]
  IC50 of inhibition of MMP2 secretion, primary mouse cardiac fibroblasts + IL-11:IL11RA (hyper IL-11) 0.2 ng/ml (panel 'IL-11:IL11RA-driven MMP2 secretion'): 0.0351 µg/mL
[8]
  IC50 of inhibition of MMP2 secretion, primary human hepatic stellate cells + TGFB1 5 ng/ml (endogenous IL-11); upper panel: 0.00093 µg/mL
  IC50 of inhibition of MMP2 secretion, primary human hepatic stellate cells + exogenous IL-11 2 ng/ml; lower panel: 0.00164 µg/mL
[9]
  IC50 of inhibition of MMP2 secretion, primary human atrial fibroblasts + TGFβ1 (panel '9A7'): 0.00588 µg/mL
[10]
  IC50 of inhibition of TIMP1 secretion, primary human lung fibroblasts + TGFB1 5 ng/ml (panel '9A7'): 0.00229 µg/mL
[11]
  Kd: 4.29 nM
  koff: 0.000926 s⁻¹
  kon: 216000 M⁻¹ s⁻¹
  relative KD (KD divided by KD of 9A7): 1 ratio to 9A7
[12]
  % positive: 111%
[13]
  Kd: 7.85 nM
  koff: 0.000759 s⁻¹
  kon: 96600 M⁻¹ s⁻¹
[14]
  Kd: 5.46 nM
  koff: 0.000875 s⁻¹
  kon: 160000 M⁻¹ s⁻¹
[15]
  GMFI: 34800

B2: Humanised BSO-9A7 variant VH3/VL3 (antibody, V domains shown)
VH: QVQLVQSGAEVKKPGASVKVSCKASGYTFTNYWMHWLRQRPGQGLEWIGNIGPSDSKTHYNQKFKDRATLTVDKSTSTAYMELSSLRSEDTAVYYCARGDYVLFTYWGQGTLVTVSS
VL: DIVLTQSPATLSLSPGERATLSCRASQSISNNLHWYQQKPGQAPRLLIKYASQSISGIPARFSGSGSGTDFTLTISSLEPEDFAVYFCQQSYSWPLTFGQGTKLEIK
notes: Variable domains only
[9]
  IC50 of inhibition of MMP2 secretion, primary human atrial fibroblasts + TGFβ1 (panel 'VH3/VL3'): 0.0326 µg/mL
[16]
  IC50 of inhibition of MMP2 secretion, human hepatic stellate cells + TGFβ1 5 ng/ml (panel 'VH3/VL3'): 0.0233 µg/mL
[10]
  IC50 of inhibition of TIMP1 secretion, primary human lung fibroblasts + TGFB1 5 ng/ml (panel 'VH3/VL3'): 0.0274 µg/mL
[11]
  Kd: 3.61 nM
  koff: 0.000751 s⁻¹
  kon: 208000 M⁻¹ s⁻¹
  relative KD (KD divided by KD of 9A7): 0.84 ratio to 9A7

B3: Humanised BSO-9A7 variant VH3/VL2 (antibody, V domains shown)
VH: B2 VH
VL: B2 VL with P40S, P80T
notes: T0003 heads the columns 'Heavy chain' and 'Light chain', but the entries are variable domains
[11]
  Kd: 3.63 nM
  koff: 0.000801 s⁻¹
  kon: 221000 M⁻¹ s⁻¹
  relative KD (KD divided by KD of 9A7): 0.85 ratio to 9A7

B4: Humanised BSO-9A7 variant VH3/VL4 (antibody, V domains shown)
VH: B2 VH
VL: B2 VL with F87Y
notes: Variable domains only
[11]
  Kd: 3.71 nM
  koff: 0.000747 s⁻¹
  kon: 201000 M⁻¹ s⁻¹
  relative KD (KD divided by KD of 9A7): 0.86 ratio to 9A7

B5: Humanised BSO-9A7 variant VH4/VL2 (antibody, V domains shown)
VH: B2 VH with A68V, L70M
VL: B2 VL with P40S, P80T
notes: Variable domains only
[9]
  IC50 of inhibition of MMP2 secretion, primary human atrial fibroblasts + TGFβ1 (panel 'VH4/VL2'): 0.0111 µg/mL
[11]
  Kd: 5.67 nM
  koff: 0.000932 s⁻¹
  kon: 164000 M⁻¹ s⁻¹
  relative KD (KD divided by KD of 9A7): 1.32 ratio to 9A7

B6: Humanised BSO-9A7 variant VH4/VL3 (antibody, V domains shown)
VH: B2 VH with A68V, L70M
VL: B2 VL
notes: Variable domains only
[9]
  IC50 of inhibition of MMP2 secretion, primary human atrial fibroblasts + TGFβ1 (panel 'VH4/VL3'): 0.0647 µg/mL
[11]
  Kd: 5.57 nM
  koff: 0.000992 s⁻¹
  kon: 178000 M⁻¹ s⁻¹
  relative KD (KD divided by KD of 9A7): 1.3 ratio to 9A7

B7: Humanised BSO-9A7 variant VH4/VL4 (antibody, V domains shown)
VH: B2 VH with A68V, L70M
VL: B2 VL with F87Y
notes: Variable domains only; also called printed once as VH4/VH4
[16]
  IC50 of inhibition of MMP2 secretion, human hepatic stellate cells + TGFβ1 5 ng/ml (panel 'VH4/VL4'): 0.00315 µg/mL
[10]
  IC50 of inhibition of TIMP1 secretion, primary human lung fibroblasts + TGFB1 5 ng/ml (panel 'VH4/VL4'): 0.00419 µg/mL
[11]
  Kd: 5.55 nM
  koff: 0.000781 s⁻¹
  kon: 141000 M⁻¹ s⁻¹
  relative KD (KD divided by KD of 9A7): 1.29 ratio to 9A7
